Assay results reported in patent publication US20250205324A1, “ANTIGENIC PEPTIDES FOR PREVENTION AND TREATMENT OF CANCER” (ENTEROME S.A., priority 2022, published 2025).
Entries after “also recorded” stand apart in the source; their conditions may differ. Where two headings read alike, the source gives them in different places. Where no end group is shown, it is not given here.

Tests used:
[1] = tested on: T2 cell lines loaded with bacterial peptide or human counterpart peptide; test: Cytotoxic assay of peptide-specific CD8+ T cells against peptide-loaded T2 cells; format: cell-based
Excerpt: CD8+ T cells expanded per above were used to perform cytotoxic assays in presence of different ratios of target and effector cells to assess their cytotoxic capacity, using flow cytometry readout. Target cells were T2 cell lines loaded with bacterial peptide or human counterpart peptide. As a negative control T2 cells unloaded and T2 cells loaded with irrelevant peptide were employed.

HLA-A*0201 = target: T1, HLA-A*0201 (Homo sapiens, UniProt P04439, D140Y/D185E/D98H/E176V/E277Q/G131W/G231S/I119V/I121R/I166T/I218V/L300P/L318F/N151K/N90K/P208A/P217A/Q86G/Q94H/R138H/R169H/T345S); test: Affinity of the peptide to T2 cell line (HLA-A*0201 binding, FACS with anti-HLA-A2 antibody); settings: T2 cells
T1 construct: human tumoral cell T2 which expresses the HLA-A*0201 molecule; endogenous in cells; host or cells: T2 cells (human, TAP1/2 negative)
Protocol: (§1) T2 cells (5·10^4 cells per well) are incubated with decreasing concentrations of peptides from 100 μM to 0.1 μM (4 points: 100 μM, 10 μM, 1 μM, 0.1 μM) in serum-free medium (TexMacs) supplemented with 100 ng/μl of 2 Microglobulin at 37° C. for 16 hours.
The analysis is achieved by FACS (Macsquant analyzer 10 or a Macsquant analyzer 16-Miltenyi).

[2] = tested on: HHD DR1 HLA-A2 transgenic mice; test: ELISPOT-IFNγ assay on splenocytes of vaccinated HLA-A2 transgenic mice; format: in vivo, mouse; settings: for immunogenicity: T cell response in ELISPOT-IFNγ: 30 nmol peptide + UCP2 helper in Montanide ISA 51 VG s.c., prime d0, boost d14, spleen d21, restimulation 10 μM; for cross-reactivity of induced T cells with the corresponding human peptide in ELISPOT-IFNγ: prime d0, boost d14, spleen d21, challenge with human peptide 10 μM
Protocol: Briefly, HLA-A2 HHD-DR1 humanized mice (C57BL/6JB2mtm1UnclAb−/−Tg(HLA-DRA, HLA-DRB1*0101)#GjhTg(HLA-A/H2-D/B2M)1 Bpe) were assigned randomly (based on mouse sex and age) to experimental groups, wherein each group was immunized with a specific vaccination peptide (vacc-pAg) combined to a common helper peptide (h-pAg UCP2; sequence: […]; SEQ ID NO: 39) (as outlined in Table 6 below).
The peptide formulation to be injected (emulsion) was prepared freshly on each day of injection and for each group. A mix for 10 animals was prepared using 2 mL luer lock syringes (4606701 V, B BRAUN) and luer lock female-female Combifix® Adapter (B. Braun, 5206634): 500 μL of peptide mixture in syringe 1 was emulsified with 500 μL of Montanide ISA 51 VG (Seppic) contained in syringe 2. The emulsification process was performed first by pushing the peptide mixture contained in syringe 1 into syringe 2 (containing Montanide) at very low speed. Transfer of the mixture from one syringe to another was then performed at very low speed during 6 cycles (one cycle corresponding to one passage from one syringe to another), and secondly at high speed, as fast as possible, for 1 minute. Each emulsion was prepared in excess to compensate for the dead volumes at injection.
The animals were immunized on day 0 (d0) with a prime injection, and on d14 with a boost injection. Each mouse was injected s.c. on the loose skin over the neck of the animals with 100 μL of an oil-based emulsion that contained: • 30 nmol of vacc-pAg and 30 or 100 μg of UCP2 helper peptide in 50 μL of a dedicated final solvent • Montanide ISA 51 VG (Seppic) added at 1:1 (v:v) ratio (50 μL per mouse).
Seven days after the boost injection (i.e. on d21), the animals were euthanized and the spleen was harvested. Splenocytes were prepared by mechanical disruption of the organ followed by 70 μm-filtering and Red blood cell lysis.
The cell suspensions were further used in an ELISPOT-IFN assay (Table 5). The cells were cultured in 200 μL of complete T cell medium. Experimental conditions (duplicates) were as follow: 2×10^5 total cells per well when cultured in presence of various pAg (10 μM) or medium-only; and 2×10^4 total cells when cultured in presence of the positive control PMA/lonomycin (PMA: Sigma P8139: 0.1 μM final; lonomycin: Sigma 10634: 1 μM final). The cultures were assessed for their capacity to secrete IFN (mouse IFN-ELISpotPLUS kit, Mabtech 3321-4APT-10), following the manufacturer's instructions (˜12-48h incubation time before performing the assay). The peptides used for restimulation are described in Table 7.
Spots were counted on a an iSpot Fluorospot Reader System (AID). Data plotting and statistical analysis were performed with the Prism-9 software (GraphPad Software Inc.).
The data were provided as a number of spots per 1·10^6 total T cells. The individual average values (obtained from the duplicates) were next used to plot the group average values. Statistical analysis for comparison (to the irrelevant peptide condition) were performed using unpaired non-parametric test (Mann Whitney) (**: p<0.01; *: p<0.05).

[3] = target: T2, HLA-A*0201 molecule expressed on human T2 cells (human); test: T2 cell HLA-A*0201 binding assay, anti-HLA-A2-PE flow cytometry
T2 construct: surface HLA-A2 detected with anti-HLA-A2-PE (clone REA517); also called HLA-A2
Protocol: as §1, with “(5·10⁴” for “(5·10^4”, “hours. Cells are then washed two times and marked with the anti-HLA-A2 antibody coupled to PE (clone REA517, Miltenyi).” for “hours.”
For each peptide concentration, the geometric mean of the labelling associated with the peptide of interest is subtracted from background noise and reported as a percentage of the geometric mean of the HLA-A*0202 labelling obtained for the reference peptide HIV pol 589-597 at a concentration of 100 μM.

[4] = T cell clones expanded in vitro, flow cytometry readout (FIG. 18)

For FLYDVRTYL [UBE2C-B1], the “cytotoxic capacity of peptide-specific human T cell clones against T2 cells loaded with the bacteria peptide” value (“cytotoxic capacity … with the bacteria peptide” below) [1, 4] was “have the capacity to kill T2 cells”, the “cytotoxic capacity of peptide-specific human T cell clones against T2 cells loaded with the human peptide” value (from here on “cytotoxic capacity … with the human peptide”) [1, 4] was “able to kill T2 cells loaded with the human” and the “cytotoxic capacity of peptide-specific T cells against T2 cells loaded with bacterial or human peptides” value ([1]; legend of FIG. 18) was “have the ability to kill T2 cells loaded with bacterial or human peptides”.

With ALNPELLAL [KIF2C-B1, ALNPELLAL] the “cytotoxic capacity of peptide-specific T cells against T2 cells loaded with bacterial or human peptides” value [1] was “have the ability to kill T2 cells loaded with bacterial or human peptides”, the “cytotoxic capacity … with the bacteria peptide” value [1] was “have the capacity to kill T2 cells” and the “cytotoxic capacity … with the human peptide” value [1] was “able to kill T2 cells loaded with the human”.

In the case of YLYDVRTAL [UBE2C-B11, b339 prints …], the “Concentration of peptide that induces 20% of HLA-A2 expression” value (HLA-A*0201) is reported as 0.87 µM.

ALIFGQLLL [TOP2A-B2] was tested, and the “Concentration of peptide that induces 20% of HLA-A2 expression” value (HLA-A*0201) was 1.79 µM, the “immunogenicity: T cell response in ELISPOT-IFNγ” value (“immunogenicity: T cell response” below) [2] was “induced significant T cell responses; also recorded: strongly immunogenic; also recorded: induced strong immune responses” and the “cross-reactivity of induced T cells with the corresponding human peptide in ELISPOT-IFNγ” value (shortened to “cross-reactivity of induced T cells”) [2] was “able to drive an effective immune response against the corresponding human peptide; also recorded: Cross-reactivity”.

For AVIGIVAAV [OR51E2-B1], the “Concentration of peptide that induces 20% of HLA-A2 expression” value (HLA-A*0201) was 0.7 µM.

For TLDQKLFMV [ANKRD30A-B3], the “Concentration of peptide that induces 20% of HLA-A2 expression” value (HLA-A*0201) was 0.14 µM.

“ALYDVRTIL (listed as Homo sapiens) [UBE2C-H1]” was tested, and the “Concentration of peptide that induces 20% of HLA-A2 expression” value (HLA-A*0201) was 14.98 µM.

VLNPELLML [KIF2C-B13] was tested, and the “Concentration of peptide that induces 20% of HLA-A2 expression” value (HLA-A*0201) was 0.189 µM.

For “SLDQKLFQL (listed as Homo sapiens) [ANKRD30A-H3]”, the “Concentration of peptide that induces 20% of HLA-A2 expression” value (HLA-A*0201) was 0.32 µM.

In the case of “YLILEYAPL (listed as Homo sapiens) [AURKA-H1]”, the “Concentration of peptide that induces 20% of HLA-A2 expression” value (HLA-A*0201) is reported as 12.2 µM.

“ALYDVRTILL (listed as Homo sapiens) [UBEC2-H11]” was tested, and the “Concentration of peptide that induces 20% of HLA-A2 expression” value (HLA-A*0201) was 14.87 µM.

With “LVIGIILAV (listed as Homo sapiens) [CDH17-H1]” the “Concentration of peptide that induces 20% of HLA-A2 expression” value (HLA-A*0201) was 14.06 µM.

In the case of “SLPDRILDA (listed as Homo sapiens) [CDC20-H1, reference compound]”, the “Concentration of peptide that induces 20% of HLA-A2 expression” value (HLA-A*0201) is reported as 4.57 µM and the “cross-reactivity of induced T cells” value [2] is reported as “Cross-reactivity”.

With SLLSIQSYV [UBE2C-B2] the “Concentration of peptide that induces 20% of HLA-A2 expression” value (HLA-A*0201) was 0.22 µM.

With SLPDRILTV [CDC20-B1] the “cytotoxic capacity of peptide-specific T cells against T2 cells loaded with bacterial or human peptides” value [1] was “have the ability to kill T2 cells loaded with bacterial or human peptides”, the “cytotoxic capacity … with the bacteria peptide” value [1] was “have the capacity to kill T2 cells” and the “cytotoxic capacity … with the human peptide” value [1] was “able to kill T2 cells loaded with the human”.

For “ILLSIQSLL (listed as Homo sapiens) [UBE2C-H2]”, the “Concentration of peptide that induces 20% of HLA-A2 expression” value (HLA-A*0201) was 3.27 µM.

For “KILDTVHSC (listed as Homo sapiens) [ANKRD30A-H2]”, the “Concentration of peptide that induces 20% of HLA-A2 expression” value (HLA-A*0201) was 25.32 µM.

For QMNPELLTL [KIF2C-B11], the “Concentration of peptide that induces 20% of HLA-A2 expression” value (HLA-A*0201) was 0.909 µM.

For VMNPELLLL [KIF2C-B12], the “Concentration of peptide that induces 20% of HLA-A2 expression” value (HLA-A*0201) was 0.258 µM.

With IVWSDVTYV [MMP11-B1] the “Concentration of peptide that induces 20% of HLA-A2 expression” value (HLA-A*0201) was 0.08 µM.

For “AQIGIVAVV (listed as Homo sapiens) [OR51E2-H1]”, the “Concentration of peptide that induces 20% of HLA-A2 expression” value (HLA-A*0201) was 5.68 µM.

With “RLQQELMTL (listed as Homo sapiens) [UBE2C-H3]” the “Concentration of peptide that induces 20% of HLA-A2 expression” value (HLA-A*0201) was 1.06 µM.

With “AINPELLQL (listed as Homo sapiens) [KIF2C-H1]” the “Concentration of peptide that induces 20% of HLA-A2 expression” value (HLA-A*0201) was 22.55 µM.

For KIIGIILAV [CDH17-B1], the “immunogenicity: T cell response” value [2] was “induced significant T cell responses; also recorded: strongly immunogenic; also recorded: induced strong immune responses” and the “cross-reactivity of induced T cells” value [2] was “able to drive an effective immune response against the corresponding human peptide; also recorded: Cross-reactivity”.

For ALYSEILTV [ANKRD30A-B1], the “Concentration of peptide that induces 20% of HLA-A2 expression” value (HLA-A*0201) was 0.05 µM, the “immunogenicity: T cell response” value [2] was “induced significant T cell responses; also recorded: strongly immunogenic; also recorded: induced strong immune responses” and the “cross-reactivity of induced T cells” value [2] was “able to drive an effective immune response against the corresponding human peptide; also recorded: Cross-reactivity”.

“KVWSDVTPL (listed as Homo sapiens) [MMP11-H1]” was tested, and the “Concentration of peptide that induces 20% of HLA-A2 expression” value (HLA-A*0201) was 0.65 µM.

For LILDTVHSL [ANKRD30A-B2], the “Concentration of peptide that induces 20% of HLA-A2 expression” value (HLA-A*0201) was 1.13 µM.

In the case of YLSGANLFV (also called CEACAM-B1; ENT188_B1) [CEACAM5-B1], the “concentration of peptide that induces 20% of HLA-A2 expression” value [3] is reported as 0.5 µM, the “in vitro binding affinity (relative affinity, normalized against HIV-pol)” value [3] is reported as 0.5 ratio to HIV pol reference peptide and the “mean relative fluorescence intensity at 0.1 µM peptide” value [3] is reported as 7.7 % of HIV pol reference peptide. For the same molecule, the “mean relative fluorescence intensity at 1 µM peptide” value [3] was 30.8 % of HIV pol reference peptide, the “mean relative fluorescence intensity at 10 µM peptide” value [3] was 69.2 % of HIV pol reference peptide and the “mean relative fluorescence intensity at 100 µM peptide” value [3] was 76 % of HIV pol reference peptide.
